As a reminder, the Kd is the equilibrium constant for the complex coming apart.

T1: Spc98p (S. cerevisiae, UniProt P53540 1-846)
T1 construct: Spc98p, S. cerevisiae homologue of GCP3; the 674 a.a. built in the model are said to be 80% of the protein; also called GCP3 homologue; source: pFastBac-Spc98p construct; purified as part of γTuSC, prepared essentially as described (Vinh et al., 2002; Lyon et al., 2016)
T1 sequence: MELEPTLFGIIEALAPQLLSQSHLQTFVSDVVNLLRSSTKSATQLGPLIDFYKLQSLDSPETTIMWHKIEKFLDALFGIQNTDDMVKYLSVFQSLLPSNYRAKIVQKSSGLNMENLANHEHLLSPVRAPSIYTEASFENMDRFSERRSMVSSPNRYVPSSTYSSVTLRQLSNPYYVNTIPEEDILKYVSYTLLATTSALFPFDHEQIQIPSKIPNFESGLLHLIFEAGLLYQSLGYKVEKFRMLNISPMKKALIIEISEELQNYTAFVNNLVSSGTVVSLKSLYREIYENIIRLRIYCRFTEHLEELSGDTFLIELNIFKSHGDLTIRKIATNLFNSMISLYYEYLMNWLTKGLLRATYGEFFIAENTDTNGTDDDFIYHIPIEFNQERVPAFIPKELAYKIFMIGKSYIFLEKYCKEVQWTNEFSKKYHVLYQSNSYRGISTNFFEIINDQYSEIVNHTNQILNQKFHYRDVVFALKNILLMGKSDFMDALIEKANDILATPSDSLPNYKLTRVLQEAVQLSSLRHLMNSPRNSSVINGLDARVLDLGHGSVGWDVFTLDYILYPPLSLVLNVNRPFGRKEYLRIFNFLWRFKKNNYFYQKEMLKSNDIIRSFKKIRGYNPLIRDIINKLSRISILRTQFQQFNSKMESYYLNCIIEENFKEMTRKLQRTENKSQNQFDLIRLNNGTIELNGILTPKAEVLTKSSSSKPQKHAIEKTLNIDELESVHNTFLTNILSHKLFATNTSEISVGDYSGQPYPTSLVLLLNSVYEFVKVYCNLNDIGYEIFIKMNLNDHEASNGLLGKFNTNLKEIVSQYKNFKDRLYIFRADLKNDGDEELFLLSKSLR

B1: Spc110p^1-401-GST (domain or fragment, S. cerevisiae, UniProt P32380 1-401, looked up)
chain: MDEASHLPNGSLKNMEFTPVGFIKSKRNTTQTQVVSPTKVPNANNGDENEGPVKKRQRRSIDDTIDSTRLFSEASQFDDSFPEIKANIPPSPRSGNVDKSRKRNLIDDLKKDVPMSQPLKEQEVREHQMKKERFDRALESKLLGKRHITYANSDISNKELYINEIKSLKHEIKELRKEKNDTLNNYDTLEEETDDLKNRLQALEKELDAKNKIVNSRKVDDHSGCIEEREQMERKLAELERKLKTVKDQVLELENNSDVQSLKLRSKEDELKNLMNELNELKSNAEEKDTQLEFKKNELRKRTNELNELKIKSDEMDLQLKQKQNESKRLKDELNELETKFSENGSQSSAKENELKMLKNKIAELEEEISTKNSQLIAKEGKLASLMAQLTQLESKLNQRD
notes: Spc110p, S. cerevisiae, residues 1-401; also called Spc110^1-401-GST; Spc110^1-401; not shown: GST, C-terminal, kept
B2: Spc97p (natural protein, S. cerevisiae)
chain: MEIKEVDDRAELLRYTNNIPLLGKLVNHQPLWSTNPKLKSFSLEKISAPDQRRVQEALVVKDLLNVLIGLEGTYIRYFNDYEPSDPETPIEFKIAKKMDPSFKTFSRRIVRYGKQYMILTRAYEKWSDTSFGMVLQRFAYEIRRFLEDVYLKTLVERLERDFNKVPNFSIRELEQIINETEVNKQMELLYNIYEEIFREIEERRTNQSSQEDFNNFMDSMKNESSLHLRLMVAFDTTVYPVPKGGAILKIFQQKILENLGDRSSVMFLKKLLNNISQDYCTMLYEWLTQGILNDPYQEFMTYDDLEGKTDNIFDTRDRAWDTQYFIRKDVLLRDCDSEEDKNLLFKMLRTGILLKVVRASLQIPTIPSNSSDITIQEINDFADLMEGSNLELYVDKCYSRANEIFLKLFFQGYDLINVLKHLQQIFLGYQSGHNVLKFLTKNMGELTKHYRNDNNANYDKLLQNFELERQSENPNNLMRQLLMIQFDTETLPQVLSHYLQIYPEVPENNSANDDSDPLMHANNFKNMNAILFDELSKERTGAYHGSNLELYTPKSAIYHLKFDINIPYPLNIIISRTCMIKYQIILRYQLVLQYHSRLLDETWMDLNKTPSWKYRGYSHTVKRRIVRATRVLHAKMNHFIKTIMEYFNQNVIDKEVYSLEKCYRNPTLAVAIQNELEGGLTNIMTNRCLSDLIPLQLQIFDIVYKFCKFIKSMRAKLCQLDPVLYEKHKSGMMKTLNEGYRTNNGGQEDVGYQEDAALELIQKLIEYISNASSIFRKCLINFTQELSTEKFDFYDSSSVDAAGIERVLYSIVPPRSASASSQR
notes: Spc97p, S. cerevisiae homologue of GCP2; the 712 a.a. built in the model are said to be 87% of the protein; also called GCP2 homologue; source: pFastBac-Spc97p construct; purified as part of γTuSC, prepared essentially as described (Vinh et al., 2002; Lyon et al., 2016)
B3: Spc110p^1-220 (domain or fragment, S. cerevisiae, UniProt P32380 1-220, looked up)
chain: MDEASHLPNGSLKNMEFTPVGFIKSKRNTTQTQVVSPTKVPNANNGDENEGPVKKRQRRSIDDTIDSTRLFSEASQFDDSFPEIKANIPPSPRSGNVDKSRKRNLIDDLKKDVPMSQPLKEQEVREHQMKKERFDRALESKLLGKRHITYANSDISNKELYINEIKSLKHEIKELRKEKNDTLNNYDTLEEETDDLKNRLQALEKELDAKNKIVNSRKVD
notes: also called Spc110^1-220; N-terminal domain of Spc110p; source: pFastBac-GST-Spc110p^1-220 construct; purified in filaments with γTuSC, prepared essentially as described (Kollman et al., 2010; Kollman et al., 2015)
B4: γ-tubulin (Tub4p) (natural protein, S. cerevisiae)
chain: MGGEIITLQAGQCGNHVGKFLWSQLAKEHAIGTDGLSQLPDSSTERDDDTKPFFRENSRNKFTPRAIMMDSEPSVIADVENTFRGFFDPRNTWVASDGASAGNSWANGYDIGTRNQDDILNKIDKEIDSTDNFEGFQLLHSVAGGTGSGLGSNLLEALCDRYPKKILTTYSVFPARSSEVVVQSYNTILALRRLIEDSDATVVFDNASLLNISGKVFRNPNIDLQHTNQLISTIISSVTNSIRFPSYMYSSMSSIYSTLIPSPELHFLSPSFTPFTSDYIHDDIAHKGHSSYDVMLDLLDPSNSLVSTAMNNPTYFNVYNTIIGNVEPRQISRAMTKLQQRIKFPSWSSSAMHVNIGRRSPYLPLQPNENEVSGMMLSNMSTVVNVFENACNTFDKVFAKGAFLNNYNVGDLFQSMQNVQDEFAESREVVQSLMEDYVAAEQDSYLDDVLVDDENMVGELEEDLDADGDHKLV
notes: Tub4p, S. cerevisiae γ-tubulin; the 453 a.a. built in the model are said to be 96% of the protein; source: pFastBac-Tub4p construct; purified as part of γTuSC, prepared essentially as described (Vinh et al., 2002; Lyon et al., 2016)
B5: Tub4p S58C/G288C (natural protein, S. cerevisiae)
chain: B4 chain with S58C, G288C
modifications: engineered cysteines oxidised to disulfides (overnight dialysis into 1 mM oxidized glutathione)
notes: Tub4p, S. cerevisiae γ-tubulin, with S58C and G288C; also called γ-tubulin engineered with disulfides; γ-tubulin of γTuSC^SS / γTuRC^SS; source: pFastBac-Tub4p^S58C/G288C construct (Kollman et al., 2015); purified in filaments prepared essentially as described (Kollman et al., 2010; Kollman et al., 2015)

Changes are numbered by the printed parent chain. In names and notes the source's numbering stands.

Data set [1] addresses γTuSC (Saccharomyces cerevisiae) (UniProt P53378). The note with it: cited from earlier work.
Data set [2] deals with B2. The data set can be described thus: cross-linking; XL-MS; DSS (0.44 mM, 3 min, RT) or EDC (5.4 mM plus 2.7 mM Sulfo-NHS, 30 min, RT); 0.4 µM γTuSC and 0.8 µM Spc110; 40 mM HEPES pH 7.0, 150 mM KCl. The note with it: both partners purified.
Data set [3] concerns the target T1, Spc98p. As to the kind of experiment: cryo-EM structure; γTuRC^WT helical filaments of γTuSC with Spc110p^1-220 (open and closed classes); 40 mM HEPES pH 7.5, 2 mM MgCl2, 1 mM EGTA, 1 mM GDP, 100 mM KCl, 1 mM DTT, 2.5% glycerol. The note with it: both partners purified.
Data set [4] concerns the molecule itself. The data set is described as above.
Data set [5] addresses T1, Spc98p. As to the kind of experiment: cryo-EM structure; γTuRC^SS helical filaments (disulfide-trapped closed state) of γTuSC^SS with Spc110p^1-220; 40 mM HEPES pH 7.5, 2 mM MgCl2, 1 mM EGTA, 0.5 mM GTP, 100 mM KCl, 1 mM oxidized glutathione, 2.5% glycerol. The note with it: both partners purified.
Data set [6] has as its target B2. The data set is described as above. The note with it: both partners purified.
Data set [7] has as its target B2. As to the kind of experiment: cryo-EM structure; γTuRC^WT helical filaments of γTuSC with Spc110p^1-220 (open and closed classes); 40 mM HEPES pH 7.5, 2 mM MgCl2, 1 mM EGTA, 1 mM GDP, 100 mM KCl, 1 mM DTT, 2.5% glycerol. The note with it: both partners purified.

In the case of γTuSC (from UniProt P53378), in data set [1], the Kd was 2000 nM.

Take B1: in data set [2], the binding result is recorded as “binds”.

On to B2, for which the binding result in data set [3] was “binds”.

Regarding B3, the binding result in data set [4], in data set [5] and in data set [6] was “binds” each time.

As for B4, the binding result in data set [3] and in data set [7] was “binds” in each case.

Take B5: the binding result in data set [5] and in data set [6] was “binds” throughout.

Source of the values: publication PMC8099430, “CM1-driven assembly and activation of yeast γ-tubulin small complex underlies microtubule nucleation” (eLife, 2021).
